In patent US20100260763A1 (DOMANTIS, published 2010):

How the values were obtained:
[1] = target: T1, human TNFR1, soluble recombinant protein (human, UniProt P19438 22-211, limits assumed, biotinylated in the BIAcore assays (coupling via primary amines)); assay: phage ELISA, plate coated with 1 nM TNFR1, anti-M13-HRP; trypsin 0 µg/ml; phage input 7.05E+08
T1 construct: also called biotinylated TNFR1; human recombinant E. coli-expressed human TNFR1
T1 sequence (looked up): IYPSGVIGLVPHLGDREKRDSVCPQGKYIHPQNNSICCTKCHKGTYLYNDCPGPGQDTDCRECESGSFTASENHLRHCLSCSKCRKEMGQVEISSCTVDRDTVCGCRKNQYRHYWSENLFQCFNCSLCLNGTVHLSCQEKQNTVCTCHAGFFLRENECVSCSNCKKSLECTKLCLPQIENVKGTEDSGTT

[2] = target: T1, human TNFR1, soluble recombinant protein; assay: phage ELISA, plate coated with 1 nM TNFR1, anti-M13-HRP; trypsin 0 µg/ml; phage input 4.51E+10
[3] = target: T1, human TNFR1, soluble recombinant protein; assay: phage ELISA, plate coated with 1 nM TNFR1, anti-M13-HRP; trypsin 1 mg/ml 1 h room temp; phage input 7.05E+08
[4] = target: T1, human TNFR1, soluble recombinant protein; assay: phage ELISA, plate coated with 1 nM TNFR1, anti-M13-HRP; trypsin 100 µg/ml 1 h room temp; phage input 3.52E+08
[5] = target: T1, human TNFR1, soluble recombinant protein; assay: phage ELISA, plate coated with 1 nM TNFR1, anti-M13-HRP; trypsin 0 µg/ml; phage input 1.13E+10
[6] = target: T1, human TNFR1, soluble recombinant protein; assay: phage ELISA, plate coated with 1 nM TNFR1, anti-M13-HRP; trypsin 100 µg/ml 1 h room temp; phage input 7.05E+08
[7] = target: T1, human TNFR1, soluble recombinant protein; assay: phage ELISA, plate coated with 1 nM TNFR1, anti-M13-HRP; trypsin 1 mg/ml 1 h room temp; phage input 2.82E+09
[8] = target: T1, human TNFR1, soluble recombinant protein; assay: phage ELISA, plate coated with 1 nM TNFR1, anti-M13-HRP; trypsin 0 µg/ml; phage input 3.52E+08
[9] = target: T1, human TNFR1, soluble recombinant protein; assay: phage ELISA, plate coated with 1 nM TNFR1, anti-M13-HRP; trypsin 10 µg/ml 1 h room temp; phage input 1.13E+10
[10] = target: T1, human TNFR1, soluble recombinant protein; assay: phage ELISA, plate coated with 1 nM TNFR1, anti-M13-HRP; trypsin 10 µg/ml 1 h room temp; phage input 1.41E+09
[11] = target: T1, human TNFR1, soluble recombinant protein; assay: phage ELISA, plate coated with 1 nM TNFR1, anti-M13-HRP; trypsin 1 mg/ml 1 h room temp; phage input 4.51E+10
[12] = target: T1, human TNFR1, soluble recombinant protein; assay: phage ELISA, plate coated with 1 nM TNFR1, anti-M13-HRP; trypsin 10 µg/ml 1 h room temp; phage input 7.05E+08

DOM1h-131 displayed on phage
phage ELISA read-out [1]: 0.705
phage ELISA read-out [2]: 0.916
phage ELISA read-out [3]: 0.084
phage ELISA read-out [4]: 0.084
phage ELISA read-out [5]: 0.949
phage ELISA read-out [6]: 0.084
phage ELISA read-out [7]: 0.114
phage ELISA read-out [8]: 0.577
phage ELISA read-out [9]: 0.86
phage ELISA read-out [10]: 0.409
phage ELISA read-out [11]: 0.284
phage ELISA read-out [12]: 0.286
